Laboratory results as given in PMC5384189 (2017).

T1: ghrelin (Homo sapiens, UniProt Q9UBU3, octanoylated ghrelin)
T1 chain: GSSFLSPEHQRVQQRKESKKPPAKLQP


Assays:
[1] = target: Growth hormone secretagogue receptor (Homo sapiens) (UniProt Q92847); details: cited from earlier work
[2] = target: T1, ghrelin; assay: fluorescence displacement of atto520-ghrelin
[3] = target: T1, ghrelin; assay: fluorescence displacement of atto520-ghrelin (Goldstein-Barrett corrected)

Molecule | Kd [1] [nM] | IC50 [2] [nM] | Ki [3] [nM]
Ghrelin (from UniProt Q9UBU3) | 0.15 |  | 
GHS receptor (GHSR1a) (protein) MWNATPSEEPGFNLTLADLDWDASPGNDSLGDELLQLFPAPLLAGVTATCVALFVVGIAGNLLTMLVVSRFRELRTTTNLYLSSMAFSDLLIFLCMPLDLVRLWQYRPWNFGDLLCKLFQFVSESCTYATVLTITALSVERYFAICFPLRAKVVVTKGRVKLVIFVIWAVAFCSAGPIFVLVGVEHENGTDPWDTNECRPTEFAVRSGLLTVMVWVSSIFFFLPVFCLTVLYSLIGRKLWRRRRGDAVVGASLRDQNHKQTVKMLAVVVFAFILCWLPFHVGRYLFSKSFEPGSLEIAQISQYCNLVSFVLFYLSAAINPILYNIMSKKYRVAVFRLLGFEPFSQRKLSTLKDESSRAWTESSINT |  | 6870 | 10
